Test results as given in patent US20240060104A1, “ATP-PRT VARIANT WITH REDUCED FEEDBACK INHIBITION BY HISTIDINE, AND HISTIDINE-PRODUCING STRAIN EXPRESSING SAME” (DAESANG CORPORATION, priority 2020, published 2024).

Biological target: T1, ATP phosphoribosyltransferase (Escherichia coli, UniProt P60757, E271K/H232T/R250H/S288P/T252L)
T1 construct: endogenous in cells; host or cells: E. coli DS9H (chromosomal hisG); sonicated cells, centrifuged supernatant
Assay type: biochemical, E. coli
Details: FIG. 1, compared among hisG_WT, hisG_SDM4, hisG_SDM7
Experimental: Each strain was cultured under conditions of 30° C. and 180 rpm. When the OD600 reached 0.6, ATP-PRT expression was induced with 1 mM IPTG (final concentration) and additional culture was performed for about 4 hours. The cells obtained after culturing were sonicated and centrifuged. The obtained supernatants were used for evaluation of ATP phosphoribosyltransferase activity. […] The protein in each supernatant was quantified to match the concentration, and the enzyme activity was measured after mixing the reactants according to the reaction composition shown in Table 8 below.
The activity was measured at 30° C. at a UV wavelength of 290 nm at 2 minute intervals for 30 minutes.

B1: hisG_SDM7: ATP-PRT variant containing H232T, R250H, T252L, E271K and S288P mutations (protein)
chain: MTDNTRLRIAMQKSGRLSDDSRELLARCGIKINLHTQRLIAMAENMPIDILRVRDDDIPGLVMDGVVDLGIIGENVLEEELLNRRAQGEDPRYFTLRRLDFGGCRLSLATPVDEAWDGPLSLNGKRIATSYPHLLKRYLDQKGISFKSCLLNGSVEVAPRAGLADAICDLVSTGATLEANGLREVEVIYRSKACLIQRDGEMEESKQQLIDKLLTRIQGVIQARESKYIMMTAPTERLDEVIALLPGAEHPLILPLAGDQQRVAMHMVSSKTLFWETMEKLKALGASPILVLPIEKMME
modifications: hisG_SDM7
notes: ATP-PRT variant containing H232T, R250H, T252L, E271K and S288P mutations
- Resistance to activity inhibition by histidine: best resistance
